The record followed here is patent US12258584B2, “Methods and systems for converting precursor cells into intestinal tissues through directed differentiation” (Children's Hospital Medical Center, priority 2010, dated 2025).

Holding throughout (assay type): cell-based, human
One assay relates to iPSC line 3.12. Put plainly: Affymetrix microarray analysis of transcript levels during DE formation. The conditions noted are these: 3-day activin treated vs undifferentiated cultures, label = gene symbol of the transcript. The protocol: (§1) FIGS. 6a and 6b illustrate exemplary embodiments in accordance with the present invention, depicting characterization of DE formation from hESC and iPSC lines by immuno-fluorescence (IF) and Microarray analysis. (a) Undifferentiated hESCs stained with the pluripotency marker OCT4 (green) were treated for 3 days with ActivinA. […] (b) Transcriptional profile of DE induction. hESC-H9 and iPSC lines 3.5, 3.6 and 3.12 were analyzed before and after DE formation (activin differentiation) by Affymetrix DNA microarray analysis.
(§2) For microarray analysis, RNA was isolated from undifferentiated and 3-day activin treated hESC and iPSC cultures and used create target DNA for hybridization to Affymetrix Human 1.0 Gene ST Arrays using standard procedures (Affymetrix, Santa Clara, CA). Independent biological triplicates were performed for each cell line and condition. Affymetrix microarray Cel files were subjected to Robust Multichip Average (RMA) normalization in GeneSpring 10.1. Probe sets were first filtered for those that are overexpressed or underexpressed and then subjected to statistical analysis for differential expression by 3 fold or more between undifferentiated and differentiated cultures with p<0.05 using the Students T-test. Log 2 gene expression ratios were then subjected to hierachical clustering using the standard correlation distance metric as implemented in GeneSpring.

The test system of another assay is hESC-H9. The description is as above. The conditions noted are these: 3-day activin treated vs undifferentiated cultures, label = gene symbol of the transcript. The protocol:
as §1, §2

The next assay deals with iPSC3.4. The assay is described as above. The conditions noted are these: 3-day activin treated vs undifferentiated cultures, label = gene symbol of the transcript. The protocol:
as §2

In a further assay the test system is iPSC-3.5. The assay can be described thus: Hindgut spheroid formation from iPSC-3.5 definitive endoderm after growth factor treatment. As to conditions: 500 ng/ml; for Average # organoids per well / Total # organoids (# organoids/wells counted): iPSC-3.5 definitive endoderm. The protocol:
(§3) Differentiation of PSCs into Definitive Endoderm (DE). Differentiation into Definitive Endoderm was carried out as previously described. Briefly, a 3 day ActivinA (R&D systems) differentiation protocol was used. Cells were treated with ActivinA (100 ng/ml) for three consecutive days in RPMI 1640 media (Invitrogen) with increasing concentrations of 0%, 0.2%, 2% HyClone defined FBS (dFBS) (Thermo Scientific).
(§4) The following tables illustrate the effects of growth factor treatment of hESCs and iPSCs. Generation of hindgut spheroids was tracked for (Table 1A) days 2-5 following growth factor treatment for H9 hESCs or (Table 1B) days 2-4 of growth factor treatment for iPSCs. Definitive endoderm was treated with either 500 ng/ml of FGF4 alone or 500 ng/ml of FGF4+Wnt3a. For both HESCs and iPSCs, hindgut spheroids formed much more robustly under FGF4+Wnt3a conditions. […] Over the course of 4 days, FGF4+Wnt3a treated H9 endoderm generated an average of 4.5 fold more spheroids than that treated with FGF4 alone.
(§5) Generation of hindgut spheroids was tracked for days 2-5 of growth factor treatment (H9 hESCs, Table 1A) or days 2-4 of growth factor treatment (iPSCs, Table 1B) for endoderm being given either 500 ng/ml FGF4 alone or 500 ng/ml FGF4+Wnt3a. In both cell lines, hindgut spheroids were much more robustly generated in FGF4+Wnt3a conditions. Over the course of 4 days, FGF4+Wnt3a treated H9 endoderm generated an average of 4.5 fold more spheroids than FGF4 treated alone.
(§6) Directed differentiation into hindgut and intestinal organoids. After differentiation into definitive endoderm, cells were incubated in 2% dFBS-DMEM/F12 with either 50 or 500 ng/ml FGF4 and/or 50 or 500 ng/ml Wnt3a (R&D Systems) for 2-4 days. After 2 days with treatment of growth factors, 3-dimensional floating spheroids were present in the culture. 3-dimensional spheroids were transferred into an in vitro system previously described to support intestinal growth and differentiation. Briefly, spheroids were embedded in Matrigel (BD Bioscience #356237) containing 500 ng/ml R-Spondin1 (R&D Systems), 100 ng/ml Noggin (R&D Systems) and 50 ng/ml EGF (R&D Systems). After the Matrigel solidified, media (Advanced DMEM/F12 (Invitrogen) supplemented with L-Glutamine, […], N2 supplement (R&D Systems), B27 supplement (Invitrogen), and Pen/Strep containing growth factors was overlaid and replaced every 4 days.

Assay [1] has as its system H9-HES cells differentiated into definitive endoderm. The assay can be described thus: Posteriorization of definitive endoderm: foregut (ALB, PDX1) and hindgut (CDX2) marker expression by RT-qPCR and immunofluorescence. The conditions noted are these: DE treated 24-48 hours; up to 500 ng/ml; RT-qPCR relative to no growth factor control. The procedure:
Differentiation of DE in Permissive Media (Differentiation Protocol for FIG. 1). After differentiation into definitive endoderm, cells were incubated in DMEM/F12 plus 2% defined fetal bovine serum (dFBS) with either 0, 50, or 500 ng/ml of FGF4 and/or 0, 50, or 500 ng/ml of Wnt3a (R&D Systems) for 6, 48, or 96 hours. Cultures were then grown in permissive media consisting of DMEM plus 10% fetal bovine serum (FBS) for an additional 7 days.
FIGS. 1a through 1d illustrate exemplary embodiments of the present invention. FGF4 and Wnt3a act synergistically in a temporal and dose-dependent manner to specify stable posterior endoderm fate. ActivinA (100 ng/ml) was used to differentiate H9-HES cells into definitive endoderm (DE). DE was treated with the posteriorizing factors FGF4 (50, 500 ng), Wnt3a (50, 500 ng) or both for 6, 48 or 96 hours. Cells were then cultured in a permissive medium without growth factors for an additional seven days and analyzed for expression of foregut markers (ALB, PDX1) and the hindgut marker (CDX2) by RT-qPCR (a) and immunofluorescence (b-d). FGF4/Wnt-mediated changes in marker expression in (a) is relative to 3-day activin treated DE cultures that were grown for identical lengths of time in the absence of FGF4 or Wnt3a (control). […] Error bars denote standard deviation of triplicates. Significance is shown by; * (p<0.05), ^ (p<0.001), # (p<0.0001).
FIGS. 7a and 7b illustrate exemplary embodiments in accordance with the present invention, depicting time and concentration dependent induction of CDX2 by FGF4 and Wnt3a. (a) FGF4 and Wnt3a up-regulate CDX2 in a concentration dependant manner. 3-day ActivinA treated hESCs were treated for 48 hours with Wnt3a at 50 ng/ml or 500 ng/ml or FGF4 at 50 ng/ml or 500 ng/ml, or increasing concentrations of FGF4+Wnt3a. Cells were analyzed after 48 hours of treatment. […] CDX2 expression was normalized to the internal control beta-tubulin, and is shown relative to a 48 hour control cultured in the absence of growth factors. (b) FGF4 and Wnt3a up-regulate CDX2 in a time dependant manner. 48 hours of exposure to FGF4+Wnt3a was required for the most robust induction of CDX2. All time points shown are set relative to a 0 hour no growth factor control. 500 ng/ml of FGF4, Wnt3a or FGF4+Wnt3a was used for all time points. Note that 24 hour and 48 controls, in the absence of growth factors, show a significant and spontaneous up-regulation of CDX2. Error bars denote standard deviation of triplicates. Significance is shown by; * (p<0.05)
RNA was isolated using the Nucleospin II RNA isolation kit (Clonetech). […] Finally, qPCR was carried out using Quantitect SybrGreen MasterMix (Qiagen) on a Chromo4 Real-Time PCR (BioRad). […]

Another assay concerns H9 hESCs. The assay can be described thus: Hindgut spheroid formation from hESC-H9 definitive endoderm after growth factor treatment. As to conditions: for Average # organoids per well / Total # organoids (# organoids/wells counted): hESC-H9 definitive endoderm. The protocol:
as §3, §4, §5, §6

The mark [2] stands for this setting: 500 ng/ml, 2 days (48 h) of GF treatment.
Setting [3] is: 500 ng/ml, 3 days (72 h) of GF treatment.
Where [4] appears, read: 500 ng/ml, 4 days (96 h) of GF treatment.
[5] abbreviates: 500 ng/ml, 5 days (120 h) of GF treatment.

“Also recorded” adds a separate entry of the source.

On to DKK1, for which the “[DIFF'D-IPSC3.12] VS [IFF'D-IPSC3.12] (folds), variation of transcript level during DE formation” value in the assay with iPSC line 3.12 is listed as 6.27 folds. Besides, the “DIFF'D-H9] VS [IFF'D-H9] (folds), variation of transcript level during DE formation” value in the assay with hESC-H9 is recorded as 9.66 folds. The “[Diff'd-iPSC3.4] vs [Undiff d-iPSC3.4] (folds), variation of transcript level during DE formation” value in the assay on iPSC3.4 is 7.27 folds.

With NODAL, the “[DIFF'D-IPSC3.12] VS [IFF'D-IPSC3.12] (folds), variation of transcript level during DE formation” value with iPSC line 3.12 is recorded as 5.77 folds. The “DIFF'D-H9] VS [IFF'D-H9] (folds), variation of transcript level during DE formation” value in the assay with hESC-H9 stood at 5.66 folds. Moreover, the “[Diff'd-iPSC3.4] vs [Undiff d-iPSC3.4] (folds), variation of transcript level during DE formation” value in the assay on iPSC3.4 amounted to 5.00 folds.

Consider NPPB, for which the “[DIFF'D-IPSC3.12] VS [IFF'D-IPSC3.12] (folds), variation of transcript level during DE formation” value with iPSC line 3.12 amounted to 3.62 folds. The “DIFF'D-H9] VS [IFF'D-H9] (folds), variation of transcript level during DE formation” value in the assay with hESC-H9 was 2.88 folds. In the assay on iPSC3.4, the “[Diff'd-iPSC3.4] vs [Undiff d-iPSC3.4] (folds), variation of transcript level during DE formation” value was 3.57 folds.

B1: FGF4: fibroblast growth factor 4, soluble growth factor (R&D Systems) known to posteriorize endoderm (protein, UniProt P08620 31-206, looked up)
Fibroblast growth factor 4: APTAPNGTLEAELERRWESLVALSLARLPVAAQPKEAAVQSGAGDYLLGIKRLRRLYCNVGIGFHLQALPDGRIGGAHADTRDSLLELSPVERGVVSIFGVASRFFVAMSSKGKLYGSPFFTDECTFKEILLPNNYNAYESYKYPGMFIALSKNGKTKKGNRVSPTMKVTHFLPRL
With B1, the “Average # organoids per well” value was found to be 0 in the assay on iPSC-3.5 (2 days (48 h) of GF treatment); 2.5 in the assay on iPSC-3.5 (3 days (72 h) of GF treatment); 3.5 in the assay on iPSC-3.5 (4 days (96 h) of GF treatment); 0 with H9 hESCs (setting [2]); 0 in the assay with H9 hESCs (setting [3]); 8.8 with H9 hESCs (setting [4]). The “Average # organoids per well” value with H9 hESCs (setting [5]) amounted to 4.75. Further, the “Total # organoids (# organoids/wells counted)” value in the assay with iPSC-3.5 (2 days (48 h) of GF treatment) was 0/4; in the assay on iPSC-3.5 (3 days (72 h) of GF treatment), 10/4; in the assay with iPSC-3.5 (4 days (96 h) of GF treatment), 14/4; in the assay with H9 hESCs (setting [2]), 0/5; with H9 hESCs (setting [3]), 0/5; with H9 hESCs (setting [4]), 44/5. The “Total # organoids (# organoids/wells counted)” value in the assay on H9 hESCs (setting [5]) is given as 19/4. Besides, the “induction of hindgut marker CDX2 expression / posterior fate” value in assay [1] is on record as “neither factor alone was sufficient to robustly promote a posterior fate; also recorded: modest changes in CDX2 expression”. The “CDX2 staining of spheroids / 3D structures” value with H9 hESCs (CDX2 immunostaining of treated DE cultures) is listed as “weakly CDX2+”. Besides, the “fold fewer spheroids generated (versus FGF4+Wnt3a treated cultures)” value in the assay with H9 hESCs (Table 1A, H9 hESC definitive endoderm) is given as 4-10 fold.

B2: Wnt3a: soluble Wnt ligand (R&D Systems), growth factor known to posteriorize endoderm (protein, UniProt P56704 19-352, looked up)
Protein Wnt-3a: SYPIWWSLAVGPQYSSLGSQPILCASIPGLVPKQLRFCRNYVEIMPSVAEGIKIGIQECQHQFRGRRWNCTTVHDSLAIFGPVLDKATRESAFVHAIASAGVAFAVTRSCAEGTAAICGCSSRHQGSPGKGWKWGGCSEDIEFGGMVSREFADARENRPDARSAMNRHNNEAGRQAIASHMHLKCKCHGLSGSCEVKTCWWSQPDFRAIGDFLKDKYDSASEMVVEKHRESRGWVETLRPRYTYFKVPTERDLVYYEASPNFCEPNPETGSFGTRDRTCNVSSHGIDGCDLLCCGRGHNARAERRREKCRCVFHWCCYVSCQECTRVYDVHTCK
On to B2, for which the spheroid formation entry in the assay with iPSC-3.5 (iPSC definitive endoderm) is “never formed spheroids”. For the same molecule, the “induction of hindgut marker CDX2 expression / posterior fate” value in assay [1] is listed as “neither factor alone was sufficient to robustly promote a posterior fate; also recorded: modest changes in CDX2 expression”. Further, the “in vitro gut-tube morphogenesis / spheroid formation” value with H9 hESCs (hESC definitive endoderm, 500 ng/ml) is “never observed; also recorded: never formed spheroids; also recorded: not observed”.
